According to patent US7135295:

Molecular target: biotinylated DNP-Ab (anti-DNP antibody modified with biotinamidocaproate N-hydroxysuccinimide ester)
Experiment: quartz crystal microbalance; avidin injected onto biotinylated DNP-Ab held on the dinitrosalicylic acid antigen monolayer

avidin (from UniProt P02701 25-152)
crystal frequency change Δf: -120 Hz
